Patent US20180044401A1
Where “and” joins values, the source holds several entries; their conditions need not be identical. Identical values can stand only once.

How the values were obtained:
[1] = molecular target: IgG-Fab prepared from anti-TNFα monoclonal antibody (Remicade); experiment: SPR Biacore, Fab immobilized at about 10000 RU, peptide at 25-200 nM, response 1 minute after addition
[2] = molecular target: IgG-Fc of anti-TNFα monoclonal antibody (Remicade); experiment: SPR Biacore, Fc immobilized at about 10000 RU, peptide at 25-200 nM, response 1 minute after addition

inclination of approximate curve (binding response against peptide concentration) [1]: 0.5 and 0.4 and 0.6 | inclination of approximate curve (binding response against peptide concentration) [2]: 0.5 and 0.4 and 0.6
B1: IgG-binding peptide of SEQ ID NO: 14 (designed binder)
chain: GPLGSTTYKLILNGKTLTGYTTAIADDAATAEKVLKQFANDNGIDGEWTYDDATKTFTVTE
